Ki data for two molecules are collected here from patent US20210139548A1 (published 2021).

*1 amine or outer side, *2 acyl side, *3 side chain or, on linkers, in order; H or OH if unused. Side-chain parts run from the residue outwards. The star is where a group is joined. C18 diacid = O=C(O)CCCCCCCCCCCCCCCCC(=O)*; γGlu = O=C(O)[C@H](CCC(=O)[*:2])N[*:1]; Isovaleryl = CC(C)CC(=O)*; AEEA = NCCOCCOCC(=O)O

This assay concerns the target T1, human neuropeptide Y2 receptor (human, UniProt P49146 1-381).
T1 construct: whole, on cells; also called hNPY2 receptor; hNPY2-R
T1 sequence (looked up): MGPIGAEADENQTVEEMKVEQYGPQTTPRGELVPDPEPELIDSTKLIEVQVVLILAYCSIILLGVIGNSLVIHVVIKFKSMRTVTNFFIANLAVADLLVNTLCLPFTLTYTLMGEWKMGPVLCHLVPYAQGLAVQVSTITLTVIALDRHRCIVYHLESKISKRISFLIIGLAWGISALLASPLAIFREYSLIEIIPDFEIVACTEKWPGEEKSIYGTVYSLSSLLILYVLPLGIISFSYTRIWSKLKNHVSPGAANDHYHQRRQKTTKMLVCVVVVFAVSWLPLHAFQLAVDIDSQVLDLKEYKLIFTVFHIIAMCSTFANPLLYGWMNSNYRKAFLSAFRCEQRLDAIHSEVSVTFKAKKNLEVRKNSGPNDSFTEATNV
Put plainly: radioligand competition (125I-PYY(1-36)), hNPY2R membranes. An outline of the steps: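 Commercial human Y2 receptor membranes (0.5 μg protein/well) were incubated with peptide for 2 h at room temperature in 50 mM HEPES, 5 mM MgCl₂, 1 mM CaCl₂, pH 7.4, with 0.2% ovalbumin. Bound radioligand was separated on PEI-soaked GF/C filters and counted by scintillation, and IC₅₀ came from nonlinear sigmoidal regression.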

B1: Compound 24 (peptide)
peptide: Isovaleryl-APEK([AEEA-AEEA-γGlu-C18 diacid])PEEDASPEELQRYYVSLRKYYNWLTRQRY-NH2
SMILES: CC(C)CC(=O)N[C@@H](C)C(=O)N1CCC[C@H]1C(=O)N[C@@H](CCC(=O)O)C(=O)N[C@@H](CCCCNC(=O)COCCOCCNC(=O)COCCOCCNC(=O)CC[C@H](NC(=O)CCCCCCCCCCCCCCCCC(=O)O)C(=O)O)C(=O)N1CCC[C@H]1C(=O)N[C@@H](CCC(=O)O)C(=O)N[C@@H](CCC(=O)O)C(=O)N[C@@H](CC(=O)O)C(=O)N[C@@H](C)C(=O)N[C@@H](CO)C(=O)N1CCC[C@H]1C(=O)N[C@@H](CCC(=O)O)C(=O)N[C@@H](CCC(=O)O)C(=O)N[C@@H](CC(C)C)C(=O)N[C@@H](CCC(N)=O)C(=O)N[C@@H](CCCNC(=N)N)C(=O)N[C@@H](Cc1ccc(O)cc1)C(=O)N[C@@H](Cc1ccc(O)cc1)C(=O)N[C@H](C(=O)N[C@@H](CO)C(=O)N[C@@H](CC(C)C)C(=O)N[C@@H](CCCNC(=N)N)C(=O)N[C@@H](CCCCN)C(=O)N[C@@H](Cc1ccc(O)cc1)C(=O)N[C@@H](Cc1ccc(O)cc1)C(=O)N[C@@H](CC(N)=O)C(=O)N[C@@H](Cc1c[nH]c2ccccc12)C(=O)N[C@@H](CC(C)C)C(=O)N[C@H](C(=O)N[C@@H](CCCNC(=N)N)C(=O)N[C@@H](CCC(N)=O)C(=O)N[C@@H](CCCNC(=N)N)C(=O)N[C@@H](Cc1ccc(O)cc1)C(N)=O)[C@@H](C)O)C(C)C
Take B1: the Ki worked out at 2.22 nM.

B2: Compound 25 (peptide)
peptide: Isovaleryl-APEK([AEEA-AEEA-γGlu-C18 diacid])PEEEASAEELQRYYVSLRHYYNWLTRQRY-NH2
SMILES: CC(C)CC(=O)N[C@@H](C)C(=O)N1CCC[C@H]1C(=O)N[C@@H](CCC(=O)O)C(=O)N[C@@H](CCCCNC(=O)COCCOCCNC(=O)COCCOCCNC(=O)CC[C@H](NC(=O)CCCCCCCCCCCCCCCCC(=O)O)C(=O)O)C(=O)N1CCC[C@H]1C(=O)N[C@@H](CCC(=O)O)C(=O)N[C@@H](CCC(=O)O)C(=O)N[C@@H](CCC(=O)O)C(=O)N[C@@H](C)C(=O)N[C@@H](CO)C(=O)N[C@@H](C)C(=O)N[C@@H](CCC(=O)O)C(=O)N[C@@H](CCC(=O)O)C(=O)N[C@@H](CC(C)C)C(=O)N[C@@H](CCC(N)=O)C(=O)N[C@@H](CCCNC(=N)N)C(=O)N[C@@H](Cc1ccc(O)cc1)C(=O)N[C@@H](Cc1ccc(O)cc1)C(=O)N[C@H](C(=O)N[C@@H](CO)C(=O)N[C@@H](CC(C)C)C(=O)N[C@@H](CCCNC(=N)N)C(=O)N[C@@H](Cc1c[nH]cn1)C(=O)N[C@@H](Cc1ccc(O)cc1)C(=O)N[C@@H](Cc1ccc(O)cc1)C(=O)N[C@@H](CC(N)=O)C(=O)N[C@@H](Cc1c[nH]c2ccccc12)C(=O)N[C@@H](CC(C)C)C(=O)N[C@H](C(=O)N[C@@H](CCCNC(=N)N)C(=O)N[C@@H](CCC(N)=O)C(=O)N[C@@H](CCCNC(=N)N)C(=O)N[C@@H](Cc1ccc(O)cc1)C(N)=O)[C@@H](C)O)C(C)C
The molecule B2 displayed an inhibition constant (Ki) of 4.36 nM.
